From US20260042827A1 (UNIVERSITY HEALTH NETWORK, published 2026)
Blank lines part the entries; values can stand above or below the binder they belong to.

Tests used:
[1] = target: T1, WT1330-348 presented by DP5 on K562 cells (human, UniProt P20036 29-260; P04440 30-258); test: flow cytometry on peptide-pulsed K562 transfectants, PE anti-mouse secondary
T1 construct: whole, on cells; Exogenously pulsed peptide
T1 MHC II alpha: not shown
T1 MHC II beta: not shown
T1 peptide: CNKRYFKLSHLQMHSRKHT

[2] = target: T2, WT1330-348 presented by DP2 on K562 cells (human, UniProt P20036 29-260; P04440 30-258); test: as above
T2 construct: whole, on cells; Exogenously pulsed peptide
T2 MHC II alpha: not shown
T2 MHC II beta: not shown
T2 peptide: CNKRYFKLSHLQMHSRKHT

[3] = target: T3, WT1330-348 presented by DP4 on K562 cells (human, UniProt P20036 29-260; P04440 30-258); test: as above
T3 construct: whole, on cells; Exogenously pulsed peptide

WT1330-348 = target: T4, WT1330-348; test: biolayer interferometry (Octet Red96), biotinylated peptide on streptavidin tips, 5H2 in solution, steady state fit with 1:1 model
T4 construct: also called WT1 peptide
T4 peptide: CNKRYFKLSHLQMHSRKHT

HLA-DP4 [4] = target: T5, HLA-DP4 (human, UniProt P20036 29-222; P04440 30-225, limits assumed); test: cell-based competitive binding assay on T2/DP4 cells, reference peptide Oxy271-287
T5 construct: whole, on cells; also called T2/DP4

HLA-DP2 = target: T6, HLA-DP2 (human, UniProt P20036 29-222; P04440 30-225, limits assumed); test: cell-based competitive binding assay on T2/DP2 cells, reference peptide Oxy271-287
T6 construct: whole, on cells; also called T2 cells transduced with DP2
T6 MHC II alpha: not shown
T6 MHC II beta: not shown

HLA-DP4 [5] = target: T5, HLA-DP4; test: cell-based competitive binding assay on T2/DP4 cells, graded WT1328-348 against reference peptide Oxy271-287

T5 sequence (P20036 29-222 limits assumed, chain 1 of 4, other chains not shown): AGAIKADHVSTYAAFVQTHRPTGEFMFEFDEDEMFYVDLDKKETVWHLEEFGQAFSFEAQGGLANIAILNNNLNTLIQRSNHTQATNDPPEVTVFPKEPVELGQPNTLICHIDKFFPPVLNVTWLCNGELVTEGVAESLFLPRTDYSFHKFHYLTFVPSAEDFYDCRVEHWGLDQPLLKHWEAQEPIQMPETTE
T5 sequence (P04440 30-225 limits assumed, chain 2 of 4, other chains not shown): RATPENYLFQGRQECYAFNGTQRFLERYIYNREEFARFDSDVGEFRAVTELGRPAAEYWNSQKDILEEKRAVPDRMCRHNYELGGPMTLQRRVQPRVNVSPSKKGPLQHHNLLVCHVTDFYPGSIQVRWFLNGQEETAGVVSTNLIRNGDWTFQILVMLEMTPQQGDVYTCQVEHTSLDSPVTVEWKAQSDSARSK

binding result [1]: binds | binding result [2]: binds | binding result [3]: binds | Kd (WT1330-348): ~50 nM
B1: WT1-specific mAb, 5H2 (antibody, V domains shown)
VH: EVQLQQSGAELVRPGALVKLSCKASGFNIKDYYMHWVKQRPEQGLEWIGWIDPENGNTIYDPKFQGKASITADTSSNTAYLQLSSLTSGDTAVYYCTRDGYYMVFAYWGQGTLVTVSA
VL: DIQMTQSPSSLSASLGGKVTITCKASQDINKCIAWYKHKPGKGPRLLIHYTSILQPGIPSRFSGSGSGRDYSFSISNLEPEDIATYYCLQYDNLYTFGGGTKLEIK
notes: also called clone 5H2; 5H2 mAb

B2: WT1235-243 (peptide)
peptide: CMTWNQMNL
notes: Negative control peptide; also called HLA-A2 restricted peptide
binding result (HLA-DP4 [4]): no binding (tested: any tested concentration) | binding result (HLA-DP2): no binding (tested: any tested concentration)

binding result (HLA-DP4 [5]): binds
Binder: PGCNKRYFKLSHLQMHSRKHT (also called 21-mer peptide) [WT1328-348]
